# Experimental data taken from paper PMC6317261, “Functional dissection of the developmentally restricted BEN domain chromatin boundary factor Insensitive” (Epigenetics & Chromatin, 2019).
# Where “and” joins values, the source holds several entries; their conditions need not be identical. Equal values may be shown once.
# B1: 2xPal (dsDNA)
# DNA 1: CTCGAGGGGTTTCTTTCCCAATTGGAAATGCGTCCTGTCGAGGGGTTTCTTTCCCAATTGGAAATGCGTCCTGTCGACGGTATCGATAAGCTTGATATCGAATTCCTGCAGCCCGGGGATCC
# DNA 2: GGATCCCCGGGCTGCAGGAATTCGATATCAAGCTTATCGATACCGTCGACAGGACGCATTTCCAATTGGGAAAGAAACCCCTCGACAGGACGCATTTCCAATTGGGAAAGAAACCCCTCGAG
# B2: HT:N1-267 (domain or fragment, Drosophila, UniProt Q8SYK5 1-267, looked up)
# chain: MENQYQRIVSATAREDSQARRSKPLFLNAWSQTSSVDFEVLRSISAPDPQVEVENRALRDKVRYLEAKLQQHKDLLSQIHATSARMQQASSLLAESRPPTPPAVQSHHILTPPSSEICAPAQNPQILDYKIISAPDDADAIEIRLAAESLNSLSTSADSDRLEICLGDENHQQSNHHNSQQQYRISNGIKRDGSSESADTPLQFIKRRKLQEIQLQEEIPRQNIKLPAKPQVKARNGSFTDLNKGQQQNMDNVMVSIGPNNTCVPAS
# notes: source: E. coli, purified (Ni-NTA Agarose); not shown: His6, N-terminal, kept; Thioredoxin, N-terminal, kept
# B3: HT:N1-111 (domain or fragment, Drosophila, UniProt Q8SYK5 1-111, looked up)
# chain: MENQYQRIVSATAREDSQARRSKPLFLNAWSQTSSVDFEVLRSISAPDPQVEVENRALRDKVRYLEAKLQQHKDLLSQIHATSARMQQASSLLAESRPPTPPAVQSHHILT
# notes: Insensitive (Insv), Drosophila, residues 1-111: includes the predicted coiled-coil domain (about 51-104); source: E. coli, purified (Ni-NTA Agarose); not shown: His6, N-terminal, kept; Thioredoxin, N-terminal, kept
# B4: His-Sumo C-BEN (HS:C-BEN) (domain or fragment, Drosophila, UniProt Q8SYK5 210-376, looked up)
# chain: LQEIQLQEEIPRQNIKLPAKPQVKARNGSFTDLNKGQQQNMDNVMVSIGPNNTCVPASVFENINWSVCSLATRKLLVTIFDRETLATHSMTGKPSPAFKDQDKPLKRMLDPGKIQDIIFAVTHKCNASEKEVRNAITTKCADENKMMKIQNVKRRSSGIKHEKENII
# notes: Insensitive (Insv), Drosophila; C domain plus BEN domain; 'lacks amino acids 1-209'; elsewhere the C domain is said to extend from aa 209 to aa 253; about 32 kDa with the tag; source: E. coli, purified (Ni-NTA Agarose); not shown: His6, N-terminal, kept; Sumo, N-terminal, kept
# B5: HT:N1-213 (domain or fragment, Drosophila, UniProt Q8SYK5 1-213, looked up)
# chain: MENQYQRIVSATAREDSQARRSKPLFLNAWSQTSSVDFEVLRSISAPDPQVEVENRALRDKVRYLEAKLQQHKDLLSQIHATSARMQQASSLLAESRPPTPPAVQSHHILTPPSSEICAPAQNPQILDYKIISAPDDADAIEIRLAAESLNSLSTSADSDRLEICLGDENHQQSNHHNSQQQYRISNGIKRDGSSESADTPLQFIKRRKLQEI
# notes: as for B2
# B6: P2 (P2#7) (dsDNA)
# DNA 1: CTTGCGCAGGACTTTTGAGATTCTATTAAATTCTAACAAGATTTCAAGCTGTGTGGCGGGGGGAAGAGGAAGAGAGCGGAAAGTGCAGCGCCCAATAAGCAAATGGCAGCTGTCACG
# DNA 2: CGTGACAGCTGCCATTTGCTTATTGGGCGCTGCACTTTCCGCTCTCTTCCTCTTCCCCCCGCCACACAGCTTGAAATCTTGTTAGAATTTAATAGAATCTCAAAAGTCCTGCGCAAG
# B7: P3 (dsDNA)
# DNA 1: CCACCGCAAAATCCAATTGGAAGAGAGCGACT
# DNA 2: AGTCGCTCTCTTCCAATTGGATTTTGCGGTGG
# B8: His-Thioredoxin F-Insv (HT:F-Insv) (natural protein, Drosophila, UniProt Q8SYK5 1-376, looked up)
# chain: MENQYQRIVSATAREDSQARRSKPLFLNAWSQTSSVDFEVLRSISAPDPQVEVENRALRDKVRYLEAKLQQHKDLLSQIHATSARMQQASSLLAESRPPTPPAVQSHHILTPPSSEICAPAQNPQILDYKIISAPDDADAIEIRLAAESLNSLSTSADSDRLEICLGDENHQQSNHHNSQQQYRISNGIKRDGSSESADTPLQFIKRRKLQEIQLQEEIPRQNIKLPAKPQVKARNGSFTDLNKGQQQNMDNVMVSIGPNNTCVPASVFENINWSVCSLATRKLLVTIFDRETLATHSMTGKPSPAFKDQDKPLKRMLDPGKIQDIIFAVTHKCNASEKEVRNAITTKCADENKMMKIQNVKRRSSGIKHEKENII
# notes: Insensitive (Insv), Drosophila, full-length; also called HT:Insv; HT-Insv; source: E. coli, purified (Ni-NTA Agarose); not shown: His6, N-terminal, kept; Thioredoxin, N-terminal, kept
# Legend:
# GST = assay: cross-linking; controls GST and Thioredoxin; the cross-linker is not named in the legend
# HT:F-Insv [1] = target: T1, HT:F-Insv (UniProt Q8SYK5 1-376); assay: EMSA; at least three shifts; EMSA: 25 mM Tris-HCl pH 7.4, 100 mM KCl, 1 mM EDTA, 0.1 mM DTT, 0.1 mM PMSF, 0.03 mg/mL BSA, 10% glycerol, 0.5% Triton X-100, 0.25 mg/mL poly(dI-dC), 30 min room temperature; conditions: protein: recombinant; tags: N-terminal His-Thioredoxin; label: 5'-32P; blunt
# T1 sequence: B8 chain
# HS:C-BEN [2] = target: T2, HS:C-BEN (UniProt Q8SYK5 210-376); assay: EMSA; multiple shifts, at lower protein than for P2; EMSA: 25 mM Tris-HCl pH 7.4, 100 mM KCl, 1 mM EDTA, 0.1 mM DTT, 0.1 mM PMSF, 0.03 mg/mL BSA, 10% glycerol, 0.5% Triton X-100, 0.25 mg/mL poly(dI-dC), 30 min room temperature; conditions: protein: recombinant; tags: N-terminal His-Sumo; chain copies: 2; label: 5'-32P; blunt
# T2 sequence: B4 chain
# [3] = target: the molecule itself; assay: cross-linking; glutaraldehyde, 10 min at room temperature in PBS with 1 mM beta-mercaptoethanol; protein adjusted to 10 uM; SDS-PAGE, silver staining
# [4] = target: the molecule itself; assay: SEC; Superdex 200 10/300 column; 500 uL of the eluted protein loaded; sizes estimated against Bio-Rad standards (1.35 to 670 kDa)
# [5] = target: the molecule itself; assay: cross-linking; EGS, increasing amounts, 10 min at room temperature in PBS with 1 mM beta-mercaptoethanol; protein adjusted to 10 uM; SDS-PAGE, silver staining
# HT:F-Insv [6] = target: T1, HT:F-Insv; assay: EMSA; multiple shifts; 0.0005-0.5 uM protein; EMSA: 25 mM Tris-HCl pH 7.4, 100 mM KCl, 1 mM EDTA, 0.1 mM DTT, 0.1 mM PMSF, 0.03 mg/mL BSA, 10% glycerol, 0.5% Triton X-100, 0.25 mg/mL poly(dI-dC), 30 min room temperature; conditions: protein: recombinant; tags: N-terminal His-Thioredoxin; label: 5'-32P; blunt
# HS:C-BEN [7] = target: T2, HS:C-BEN; assay: EMSA; multiple shifts, mainly tetramer/hexamer; EMSA: 25 mM Tris-HCl pH 7.4, 100 mM KCl, 1 mM EDTA, 0.1 mM DTT, 0.1 mM PMSF, 0.03 mg/mL BSA, 10% glycerol, 0.5% Triton X-100, 0.25 mg/mL poly(dI-dC), 30 min room temperature; conditions: protein: recombinant; tags: N-terminal His-Sumo; chain copies: 2; label: 5'-32P; blunt
# GST:BEN = target: T3, GST:BEN (UniProt Q8SYK5 258-356); assay: EMSA; EMSA: 25 mM Tris-HCl pH 7.4, 100 mM KCl, 1 mM EDTA, 0.1 mM DTT, 0.1 mM PMSF, 0.03 mg/mL BSA, 10% glycerol, 0.5% Triton X-100, 0.25 mg/mL poly(dI-dC), 30 min room temperature; conditions: protein: recombinant; tags: N-terminal GST; chain copies: 2; label: 5'-32P; blunt
# T3 sequence: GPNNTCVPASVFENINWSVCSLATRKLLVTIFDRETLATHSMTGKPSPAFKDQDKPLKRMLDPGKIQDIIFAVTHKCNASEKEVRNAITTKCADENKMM
# GST:C-BEN = target: T4, GST:C-BEN (UniProt Q8SYK5 210-376); assay: as above; conditions: protein: recombinant; tags: N-terminal GST; chain copies: 2; label: 5'-32P; blunt
# T4 sequence: B4 chain
# GST:N-terminal 213 aa = target: T5, GST:N-terminal 213 aa (UniProt Q8SYK5 1-213); assay: EMSA; data not shown; EMSA: 25 mM Tris-HCl pH 7.4, 100 mM KCl, 1 mM EDTA, 0.1 mM DTT, 0.1 mM PMSF, 0.03 mg/mL BSA, 10% glycerol, 0.5% Triton X-100, 0.25 mg/mL poly(dI-dC), 30 min room temperature; conditions: protein: recombinant; tags: N-terminal GST; label: 5'-32P; blunt
# T5 sequence: B5 chain
# HT:F-Insv [8] = target: T1, HT:F-Insv; assay: EMSA; 0.0005-0.5 uM protein; EMSA: 25 mM Tris-HCl pH 7.4, 100 mM KCl, 1 mM EDTA, 0.1 mM DTT, 0.1 mM PMSF, 0.03 mg/mL BSA, 10% glycerol, 0.5% Triton X-100, 0.25 mg/mL poly(dI-dC), 30 min room temperature; conditions: protein: recombinant; tags: N-terminal His-Thioredoxin; label: 5'-32P; blunt
# GST:F-Insv = target: T6, GST:F-Insv (UniProt Q8SYK5 1-376); assay: EMSA; closely spaced doublet; EMSA: 25 mM Tris-HCl pH 7.4, 100 mM KCl, 1 mM EDTA, 0.1 mM DTT, 0.1 mM PMSF, 0.03 mg/mL BSA, 10% glycerol, 0.5% Triton X-100, 0.25 mg/mL poly(dI-dC), 30 min room temperature; conditions: protein: recombinant; tags: N-terminal GST; label: 5'-32P; blunt
# T6 sequence: B8 chain
# HS:C-BEN [9] = target: T2, HS:C-BEN; assay: EMSA; two shifts; slower one predominates at high protein; EMSA: 25 mM Tris-HCl pH 7.4, 100 mM KCl, 1 mM EDTA, 0.1 mM DTT, 0.1 mM PMSF, 0.03 mg/mL BSA, 10% glycerol, 0.5% Triton X-100, 0.25 mg/mL poly(dI-dC), 30 min room temperature; conditions: protein: recombinant; tags: N-terminal His-Sumo; chain copies: 2; label: 5'-32P; blunt
# HS:F-Insv = target: T7, HS:F-Insv (UniProt Q8SYK5 1-376); assay: EMSA; gel-filtration fractions ~420-120 kDa; early aggregate fractions give no shift; EMSA: 25 mM Tris-HCl pH 7.4, 100 mM KCl, 1 mM EDTA, 0.1 mM DTT, 0.1 mM PMSF, 0.03 mg/mL BSA, 10% glycerol, 0.5% Triton X-100, 0.25 mg/mL poly(dI-dC), 30 min room temperature; conditions: protein: recombinant; tags: N-terminal His-Sumo; label: 5'-32P; blunt
# T7 sequence: B8 chain
# [10] = target: the molecule itself; assay: SEC; Superose 6 10/300 column; 500 uL of the eluted protein loaded; fractions analysed by SDS-PAGE and EMSA; sizes estimated against Bio-Rad standards
molecule,measurement,setting,value
GST (natural protein),stoichiometry N,GST,2
B1,binding result,HT:F-Insv [1],binds
same,binding result,HS:C-BEN [2],binds
B2,stoichiometry N,[3],4
B3,stoichiometry N,[3],4
B4,stoichiometry N,[4],2
same,stoichiometry N,[3],4
B5,stoichiometry N,[5],4
B6,binding result,HT:F-Insv [6],binds
same,binding result,HS:C-BEN [7],binds
B7,binding result,GST:BEN,binds
same,binding result,GST:C-BEN,binds
same,binding result,GST:N-terminal 213 aa,no binding
same,binding result,HT:F-Insv [8],binds
same,binding result,GST:F-Insv,binds
same,binding result,HS:C-BEN [9],binds
same,binding result,HS:F-Insv,binds
B8,stoichiometry N,[10],2 and 4
